Measurements taken from US20240287172A1 (SCIRHOM, published 2024).

Assays:
hiR2-FL-G546A-T7 = biological target: T1, hiR2-FL-G546A-T7 (human, UniProt Q6PJF5 1-856); experiment: FACS on MEF-DKO cells
T1 sequence: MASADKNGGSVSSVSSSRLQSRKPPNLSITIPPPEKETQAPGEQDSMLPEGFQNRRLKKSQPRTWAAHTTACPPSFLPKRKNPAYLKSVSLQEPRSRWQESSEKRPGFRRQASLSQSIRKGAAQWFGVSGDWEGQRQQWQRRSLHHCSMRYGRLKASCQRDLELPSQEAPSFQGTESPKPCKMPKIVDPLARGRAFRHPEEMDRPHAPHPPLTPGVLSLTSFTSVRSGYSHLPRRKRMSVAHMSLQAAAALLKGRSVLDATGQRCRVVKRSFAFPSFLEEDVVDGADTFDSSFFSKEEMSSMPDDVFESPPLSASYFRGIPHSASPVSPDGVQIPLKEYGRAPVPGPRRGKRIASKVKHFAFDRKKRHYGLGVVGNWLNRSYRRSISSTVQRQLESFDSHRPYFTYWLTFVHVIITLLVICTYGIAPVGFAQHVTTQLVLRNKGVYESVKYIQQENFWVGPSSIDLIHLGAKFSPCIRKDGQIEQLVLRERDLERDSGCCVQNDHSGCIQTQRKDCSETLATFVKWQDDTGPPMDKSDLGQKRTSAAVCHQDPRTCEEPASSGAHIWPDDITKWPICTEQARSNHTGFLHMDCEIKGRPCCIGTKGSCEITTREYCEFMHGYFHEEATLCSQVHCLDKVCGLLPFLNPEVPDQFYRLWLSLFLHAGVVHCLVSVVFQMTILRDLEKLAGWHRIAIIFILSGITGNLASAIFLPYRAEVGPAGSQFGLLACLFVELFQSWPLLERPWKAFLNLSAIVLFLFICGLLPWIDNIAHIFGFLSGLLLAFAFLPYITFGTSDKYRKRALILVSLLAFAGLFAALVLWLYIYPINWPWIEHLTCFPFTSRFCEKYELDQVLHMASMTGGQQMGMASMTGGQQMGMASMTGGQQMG

hiR2-FL-F588A-T7 = biological target: T2, hiR2-FL-F588A-T7 (human, UniProt Q6PJF5 1-856); experiment: FACS on MEF-DKO cells expressing the variant, 3 µg/ml antibody
T2 sequence: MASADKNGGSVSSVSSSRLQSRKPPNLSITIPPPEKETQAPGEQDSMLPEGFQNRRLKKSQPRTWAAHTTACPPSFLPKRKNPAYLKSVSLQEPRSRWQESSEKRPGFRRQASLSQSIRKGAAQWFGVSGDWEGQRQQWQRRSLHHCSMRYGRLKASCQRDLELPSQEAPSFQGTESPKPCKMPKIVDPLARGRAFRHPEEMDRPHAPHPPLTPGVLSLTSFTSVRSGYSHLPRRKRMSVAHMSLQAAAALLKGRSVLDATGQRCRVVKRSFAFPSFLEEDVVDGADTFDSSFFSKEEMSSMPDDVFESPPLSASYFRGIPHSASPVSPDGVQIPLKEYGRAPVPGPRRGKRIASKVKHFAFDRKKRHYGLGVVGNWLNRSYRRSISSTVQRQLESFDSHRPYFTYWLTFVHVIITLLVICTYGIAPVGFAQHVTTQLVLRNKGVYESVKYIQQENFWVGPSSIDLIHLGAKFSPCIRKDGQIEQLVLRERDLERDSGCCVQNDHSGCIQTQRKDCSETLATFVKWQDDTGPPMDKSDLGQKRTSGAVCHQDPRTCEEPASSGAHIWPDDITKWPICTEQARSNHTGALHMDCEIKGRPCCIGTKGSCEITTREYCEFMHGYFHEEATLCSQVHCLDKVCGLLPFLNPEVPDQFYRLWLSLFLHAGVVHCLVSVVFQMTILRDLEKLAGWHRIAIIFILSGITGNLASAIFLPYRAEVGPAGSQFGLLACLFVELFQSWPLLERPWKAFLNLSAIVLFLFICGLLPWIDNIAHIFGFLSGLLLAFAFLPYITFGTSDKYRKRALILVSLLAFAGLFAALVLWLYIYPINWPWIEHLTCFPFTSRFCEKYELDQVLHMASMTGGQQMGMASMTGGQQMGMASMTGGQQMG
How it was run: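 Pelleted cells are resuspended in antibody at 3 μg/ml and kept on ice 1 hour, washed, then incubated with PE goat anti-mouse IgG F(ab′)2 diluted 1:100 on ice for 1 hour protected from light, washed again and analysed by flow cytometry.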

Binder	binding result (hiR2-FL-G546A-T7)	loss of binding vs wild type (hiR2-FL-F588A-T7) [%]
antibody 5 (antibody, V domains shown, mouse IgG, kappa light chain; also called clone #5; purified antibody 5) VH: QVTLKESGPGILQPSQTLSLTCSFSGFSLSTFGMGVGWIRQPSGKGLEWLAHIWWDDEKYYNSALKSRLTISKATSKNQAFLKIANVDTADTATYYCARISNYGSNYWYFNVWGTGTTVTVSS VL: QVVLTQSPALMSASPGEKVTMTCSAGSSVSCMYWYQQKPGSSPRVLIYDTSNLASGVPARFTGSGSGTSYSLTISRMEAEDAASYYCQQWNSYPLTFGAGTKLELK	no binding (tested: 3 µg/ml)	
antibody 48 (antibody, V domains shown, mouse IgG, kappa light chain; also called clone #48; purified antibody 48) VH: QVQLQQSGTELVRPGTSVKVSCKASGYAFTNYLIEWVKQRPGQGLEWIGVINPGSGFTKYNEKFKGKATLTADKSSSTVYMHLSSLTSEDSAVYFCARGLYRAMDYWGQGTSVTVSS VL: DIQMTQSPASQSASLGESVTITCLASQTIATWLAWYQQKPGKSPQLLIYGATTLADGVPSRFSGGGSGTKFSFKISSLQAEDFVSYYCQQLYSTPYTFGGGTKLEIK		≥ 30
